{"source": "paper PMC4183369", "molecular_target": "gp59(C42)-Cy3, helicase loader protein of the T4 bacteriophage DNA replisome (bacteriophage T4) (UniProt P13342)", "sequence (P13342 whole entry)": "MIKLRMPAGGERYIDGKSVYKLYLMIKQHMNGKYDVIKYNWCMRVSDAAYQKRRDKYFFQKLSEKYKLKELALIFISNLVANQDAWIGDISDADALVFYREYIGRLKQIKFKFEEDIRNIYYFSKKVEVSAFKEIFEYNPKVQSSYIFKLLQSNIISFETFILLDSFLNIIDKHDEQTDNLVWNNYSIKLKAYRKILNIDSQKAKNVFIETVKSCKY", "experiment": "FRET or BRET"}
{"substance": "Cy5-N-gp43(exo-), T4 gp43 polymerase (from UniProt P04415 1-898) (enzyme)", "values": [{"measurement": "duration of a single FRET event", "value": "> 80", "unit": "s"}]}
